Measured values: the supplement of paper PMC11246515
± gives the standard deviation of the averaged measurements.

Assay: total protein half-life in vivo (active degradation + dilution); higher = more stable protein
[1] = E. coli NCM3722 delta-clpP delta-lon delta-hslV, growth: N-lim chemostat, doubling time 6 h
[2] = E. coli NCM3722 delta-clpP, growth: N-lim chemostat, doubling time 6 h
[3] = E. coli NCM3722 delta-hslV, growth: N-lim chemostat, doubling time 6 h
[4] = E. coli NCM3722 delta-lon, growth: N-lim chemostat, doubling time 6 h
[5] = E. coli NCM3722 delta-smpB, growth: N-lim chemostat, doubling time 6 h
[6] = wild type E. coli NCM3722, growth: C-lim chemostat, doubling time 3 h
[7] = wild type E. coli NCM3722, growth: C-lim chemostat, doubling time 6 h
[8] = wild type E. coli NCM3722, growth: C-lim chemostat, doubling time 12 h
[9] = wild type E. coli NCM3722, growth: N-lim chemostat, doubling time 6 h
[10] = wild type E. coli NCM3722, growth: N-lim chemostat, doubling time 12 h
[11] = wild type E. coli NCM3722, growth: P-lim chemostat, doubling time 6 h
[12] = wild type E. coli NCM3722, growth: P-lim chemostat, doubling time 12 h

| Sequence | total protein half-life in vivo [1] [h] | total protein half-life in vivo [2] [h] | total protein half-life in vivo [3] [h] | total protein half-life in vivo [4] [h] | total protein half-life in vivo [5] [h] | total protein half-life in vivo [6] [h] | total protein half-life in vivo [7] [h] | total protein half-life in vivo [8] [h] | total protein half-life in vivo [9] [h] | total protein half-life in vivo [10] [h] | total protein half-life in vivo [11] [h] | total protein half-life in vivo [12] [h] |
| --- | --- | --- | --- | --- | --- | --- | --- | --- | --- | --- | --- | --- |
| MQLNKVLKGLMIALPVMAIAACSSNKNASNDGSEGMLGAGTGMDANGGNGNMSSEEQARLQMQQLQQNNIVYFDLDKYDIRSDFAQMLDAHANFLRSNPSYKVTVEGHADERGTPEYNISLGERRANAVKMYLQGKGVSADQISIVSYGKEKPAVLGHDEAAYSKNRRAVLVY [P0A912] | 6.43 ± 0.059 | 6.28 ± 0.35 | 6.46 ± 0.39 | 6.35 ± 0.55 | 5.44 ± 0.29 | 3.09 ± 0.057 | 5.6 ± 0.32 | 10.7 ± 1.1 | 6.17 ± 0.19 | 12.6 ± 0.94 | 5.9 ± 0.72 | 11.3 ± 1.8 |
| MQLTSFTDYGLRALIYMASLPEGRMTSISEVTDVYGVSRNHMVKIINQLSRAGYVTAVRGKNGGIRLGKPASAIRIGDVVRELEPLSLVNCSSEFCHITPACRLKQALSKAVQSFLTELDNYTLADLVEENQPLYKLLLVE [P0AF63] | 7.13 ± 1.1 | 6.69 ± 0.15 | 5.44 ± 0.07 | 5.26 ± 0.19 | 5.26 ± 0.17 | 2.93 ± 0.15 | 6.31 ± 1.1 | 8.91 ± 0.3 | 5.12 ± 0.58 | 10.2 ± 0.44 | 4.03 ± 0.2 | 6.22 ± 0.65 |
| MQNRLTIKDIARLSGVGKSTVSRVLNNESGVSQLTRERVEAVMNQHGFSPSRSARAMRGQSDKVVAIIVTRLDSLSENLAVQTMLPAFYEQGYDPIMMESQFSPQLVAEHLGVLKRRNIDGVVLFGFTGITEEMLAHWQSSLVLLARDAKGFASVCYDDEGAIKILMQRLYDQGHRNISYLGVPHSDVTTGKRRHEAYLAFCKAHKLHPVAALPGLAMKQGYENVAKVITPETTALLCATDTLALGASKYLQEQRIDTLQLASVGNTPLMKFLHPEIVTVDPGYAEAGRQAACQLIAQVTGRSEPQQIIIPATLS | 5.44 ± 0.36 | 5.57 | 5.41 ± 1 | 5.53 ± 0.32 | 4.96 ± 0.47 | 2.888 ± 0.0064 | 5.6 ± 0.49 | 12.4 ± 2.4 | 5.0404 ± 0.0037 | 10.5 ± 1.1 | 4.72 ± 0.12 | 10.2 ± 1.8 |
| MQNTTHDNVILELTVRNHPGVMTHVCGLFARRAFNVEGILCLPIQDSDKSHIWLLVNDDQRLEQMISQIDKLEDVVKVQRNQSDPTMFNKIAVFFQ [P0ADF8] | 5.25 ± 2.1 | 1.6 ± 0.35 | 1.74 ± 0.22 | 2.35 | 1.62 ± 0.038 | 2.47 ± 0.37 | 3.63 ± 0.07 | 4.56 ± 0.67 | 1.447 ± 0.0047 | 2.29 ± 0.29 | 2.71 ± 0.66 | 5.91 ± 0.75 |
| MQQLASFLSGTWQSGRGRSRLIHHAISGEALWEVTSEGLDMAAARQFAIEKGAPALRAMTFIERAAMLKAVAKHLLSEKERFYALSAQTGATRADSWVDIEGGIGTLFTYASLGSRELPDDTLWPEDELIPLSKEGGFAARHLLTSKSGVAVHINAFNFPCWGMLEKLAPTWLGGMPAIIKPATATAQLTQAMVKSIVDSGLVPEGAISLICGSAGDLLDHLDSQDVVTFTGSAATGQMLRVQPNIVAKSIPFTMEADSLNCCVLGEDVTPDQPEFALFIREVVREMTTKAGQKCTAIRRIIVPQALVNAVSDALVARLQKVVVGDPAQEGVKMGALVNAEQRADVQEKVNILLAAGCEIRLGGQADLSAAGAFFPPTLLYCPQPDETPAVHATEAFGPVATLMPAQNQRHALQLACAGGGSLAGTLVTADPQIARQFIADAARTHGRIQILNEESAKESTGHGSPLPQLVHGGPGRAGGGEELGGLRAVKHYMQRTAVQGSPTMLAAISKQWVRGAKVEEDRIHPFRKYFEELQPGDSLLTPRRTMTEADIVNFACLSGDHFYAHMDKIAAAESIFGERVVHGYFVLSAAAGLFVDAGVGPVIANYGLESLRFIEPVKPGDTIQVRLTCKRKTLKKQRSAEEKPTGVVEWAVEVFNQHQTPVALYSILTLVARQHGDFVD | 4.86 | – | – | – | – | – | – | – | – | 6.08 | – | 7.41 |
| MQQPVVRVGEWLVTPSINQISRNGRQLTLEPRLIDLLVFFAQHSGEVLSRDELIDNVWKRSIVTNHVVTQSISELRKSLKDNDEDSPVYIATVPKRGYKLMVPVIWYSEEEGEEIMLSSPPPIPEAVPATDSPSHSLNIQNTATPPEQSPVKSKRFTTFWVWFFFLLSLGICVALVAFSSLDTRLPMSKSRILLNPRDIDINMVNKSCNSWSSPYQLSYAIGVGDLVATSLNTFSTFMVHDKINYNIDEPSSSGKTLSIAFVNQRQYRAQQCFMSIKLVDNADGSTMLDKRYVITNGNQLAIQNDLLESLSKALNQPWPQRMQETLQKILPHRGALLTNFYQAHDYLLHGDDKSLNRASELLGEIVQSSPEFTYARAEKALVDIVRHSQHPLDEKQLAALNTEIDNIVTLPELNNLSIIYQIKAVSALVKGKTDESYQAINTGIDLEMSWLNYVLLGKVYEMKGMNREAADAYLTAFNLRPGANTLYWIENGIFQTSVPYVVPYLDKFLASE | 5.6 ± 0.59 | 5.47 ± 0.86 | 5.65 ± 0.78 | – | 5.484 ± 0.022 | – | – | – | 5.06 ± 0.32 | 12.73 ± 0.03 | 6.18 ± 0.23 | 12.08 ± 0.11 |
| MQQSTPYLSFRGIGKTFPGVKALTDISFDCYAGQVHALMGENGAGKSTLLKILSGNYAPTTGSVVINGQEMSFSDTTAALNAGVAIIYQELHLVPEMTVAENIYLGQLPHKGGIVNRSLLNYEAGLQLKHLGMDIDPDTPLKYLSIGQWQMVEIAKALARNAKIIAFDEPTSSLSAREIDNLFRVIRELRKEGRVILYVSHRMEEIFALSDAITVFKDGRYVKTFTDMQQVDHDALVQAMVGRDIGDIYGWQPRSYGEERLRLDAVKAPGVRTPISLAVRSGEIVGLFGLVGAGRSELMKGMFGGTQITAGQVYIDQQPIDIRKPSHAIAAGMMLCPEDRKAEGIIPVHSVRDNINISARRKHVLGGCVINNGWEENNADHHIRSLNIKTPGAEQLIMNLSGGNQQKAILGRWLSEEMKVILLDEPTRGIDVGAKHEIYNVIYALAAQGVAVLFASSDLPEVLGVADRIVVMREGEIAGELLHEQADERQALSLAMPKVSQAVA [P0AAF3] | – | – | 5.15 | – | 2.45 ± 0.57 | 2.228 ± 0.021 | 3.922 ± 0.021 | 5.96 ± 0.79 | – | 6.06 | – | 10.5 |
